B1: 7β-HSDH [R64D]: 7β-HSDH mutant, arginine in position 64 exchanged for aspartic acid (D) (protein, UniProt A4ECA9 1-263, looked up, variant R64D)
7beta-hydroxysteroid …: MNLREKYGEWGLILGATEGVGKAFCEKIAAGGMNVVMVGRREEKLNVLAGEIRETYGVETKVVDADFSQPGAAETVFAATEGLDMGFMSYVACLHSFGKIQDTPWEKHEAMINVNVVTFLKCFHHYMRIFAAQDRGAVINVSSMTGISSSPWNGQYGAGKAFILKMTEAVACECEGTGVDVEVITLGTTLTPSLLSNLPGGPQGEAVMKIALTPEECVDEAFEKLGKELSVIAGQRNKDSVHDWKANHTEDEYIRYMGSFYRD
B2: 7β-HSDH [R64I]: 7β-HSDH mutant, R in position 64 replaced by I (protein, UniProt A4ECA9 1-263, looked up, variant R64I)
7beta-hydroxysteroid …: MNLREKYGEWGLILGATEGVGKAFCEKIAAGGMNVVMVGRREEKLNVLAGEIRETYGVETKVVIADFSQPGAAETVFAATEGLDMGFMSYVACLHSFGKIQDTPWEKHEAMINVNVVTFLKCFHHYMRIFAAQDRGAVINVSSMTGISSSPWNGQYGAGKAFILKMTEAVACECEGTGVDVEVITLGTTLTPSLLSNLPGGPQGEAVMKIALTPEECVDEAFEKLGKELSVIAGQRNKDSVHDWKANHTEDEYIRYMGSFYRD
B3: 7β-HSDH [R64L]: 7β-HSDH mutant, R in position 64 replaced by L (protein, UniProt A4ECA9 1-263, looked up, variant R64L)
7beta-hydroxysteroid …: MNLREKYGEWGLILGATEGVGKAFCEKIAAGGMNVVMVGRREEKLNVLAGEIRETYGVETKVVLADFSQPGAAETVFAATEGLDMGFMSYVACLHSFGKIQDTPWEKHEAMINVNVVTFLKCFHHYMRIFAAQDRGAVINVSSMTGISSSPWNGQYGAGKAFILKMTEAVACECEGTGVDVEVITLGTTLTPSLLSNLPGGPQGEAVMKIALTPEECVDEAFEKLGKELSVIAGQRNKDSVHDWKANHTEDEYIRYMGSFYRD
B4: 7β-HSDH [R64W]: 7β-HSDH mutant, R in position 64 replaced by W (protein, UniProt A4ECA9 1-263, looked up, variant R64W)
7beta-hydroxysteroid …: MNLREKYGEWGLILGATEGVGKAFCEKIAAGGMNVVMVGRREEKLNVLAGEIRETYGVETKVVWADFSQPGAAETVFAATEGLDMGFMSYVACLHSFGKIQDTPWEKHEAMINVNVVTFLKCFHHYMRIFAAQDRGAVINVSSMTGISSSPWNGQYGAGKAFILKMTEAVACECEGTGVDVEVITLGTTLTPSLLSNLPGGPQGEAVMKIALTPEECVDEAFEKLGKELSVIAGQRNKDSVHDWKANHTEDEYIRYMGSFYRD
B5: 7β-HSDH [R64T]: 7β-HSDH mutant, R in position 64 replaced by T (protein, UniProt A4ECA9 1-263, looked up, variant R64T)
7beta-hydroxysteroid …: MNLREKYGEWGLILGATEGVGKAFCEKIAAGGMNVVMVGRREEKLNVLAGEIRETYGVETKVVTADFSQPGAAETVFAATEGLDMGFMSYVACLHSFGKIQDTPWEKHEAMINVNVVTFLKCFHHYMRIFAAQDRGAVINVSSMTGISSSPWNGQYGAGKAFILKMTEAVACECEGTGVDVEVITLGTTLTPSLLSNLPGGPQGEAVMKIALTPEECVDEAFEKLGKELSVIAGQRNKDSVHDWKANHTEDEYIRYMGSFYRD
B6: 7β-HSDH [R64Y]: 7β-HSDH mutant, R in position 64 replaced by Y (protein, UniProt A4ECA9 1-263, looked up, variant R64Y)
7beta-hydroxysteroid …: MNLREKYGEWGLILGATEGVGKAFCEKIAAGGMNVVMVGRREEKLNVLAGEIRETYGVETKVVYADFSQPGAAETVFAATEGLDMGFMSYVACLHSFGKIQDTPWEKHEAMINVNVVTFLKCFHHYMRIFAAQDRGAVINVSSMTGISSSPWNGQYGAGKAFILKMTEAVACECEGTGVDVEVITLGTTLTPSLLSNLPGGPQGEAVMKIALTPEECVDEAFEKLGKELSVIAGQRNKDSVHDWKANHTEDEYIRYMGSFYRD
B7: 7β-HSDH [R64G]: 7β-HSDH mutant, R in position 64 replaced by G (protein, UniProt A4ECA9 1-263, looked up, variant R64G)
7beta-hydroxysteroid …: MNLREKYGEWGLILGATEGVGKAFCEKIAAGGMNVVMVGRREEKLNVLAGEIRETYGVETKVVGADFSQPGAAETVFAATEGLDMGFMSYVACLHSFGKIQDTPWEKHEAMINVNVVTFLKCFHHYMRIFAAQDRGAVINVSSMTGISSSPWNGQYGAGKAFILKMTEAVACECEGTGVDVEVITLGTTLTPSLLSNLPGGPQGEAVMKIALTPEECVDEAFEKLGKELSVIAGQRNKDSVHDWKANHTEDEYIRYMGSFYRD
B8: 7β-HSDH [R64A]: 7β-HSDH mutant, R in position 64 replaced by A (protein, UniProt A4ECA9 1-263, looked up, variant R64A)
7beta-hydroxysteroid …: MNLREKYGEWGLILGATEGVGKAFCEKIAAGGMNVVMVGRREEKLNVLAGEIRETYGVETKVVAADFSQPGAAETVFAATEGLDMGFMSYVACLHSFGKIQDTPWEKHEAMINVNVVTFLKCFHHYMRIFAAQDRGAVINVSSMTGISSSPWNGQYGAGKAFILKMTEAVACECEGTGVDVEVITLGTTLTPSLLSNLPGGPQGEAVMKIALTPEECVDEAFEKLGKELSVIAGQRNKDSVHDWKANHTEDEYIRYMGSFYRD
B9: 7β-HSDH [R64C]: 7β-HSDH mutant, R in position 64 replaced by C (protein, UniProt A4ECA9 1-263, looked up, variant R64C)
7beta-hydroxysteroid …: MNLREKYGEWGLILGATEGVGKAFCEKIAAGGMNVVMVGRREEKLNVLAGEIRETYGVETKVVCADFSQPGAAETVFAATEGLDMGFMSYVACLHSFGKIQDTPWEKHEAMINVNVVTFLKCFHHYMRIFAAQDRGAVINVSSMTGISSSPWNGQYGAGKAFILKMTEAVACECEGTGVDVEVITLGTTLTPSLLSNLPGGPQGEAVMKIALTPEECVDEAFEKLGKELSVIAGQRNKDSVHDWKANHTEDEYIRYMGSFYRD
B10: 7β-HSDH [R64V]: 7β-HSDH mutant, R in position 64 replaced by V (protein, UniProt A4ECA9 1-263, looked up, variant R64V)
7beta-hydroxysteroid …: MNLREKYGEWGLILGATEGVGKAFCEKIAAGGMNVVMVGRREEKLNVLAGEIRETYGVETKVVVADFSQPGAAETVFAATEGLDMGFMSYVACLHSFGKIQDTPWEKHEAMINVNVVTFLKCFHHYMRIFAAQDRGAVINVSSMTGISSSPWNGQYGAGKAFILKMTEAVACECEGTGVDVEVITLGTTLTPSLLSNLPGGPQGEAVMKIALTPEECVDEAFEKLGKELSVIAGQRNKDSVHDWKANHTEDEYIRYMGSFYRD
B11: 7β-HSDH [R64S]: 7β-HSDH mutant, R in position 64 replaced by S (protein, UniProt A4ECA9 1-263, looked up, variant R64S)
7beta-hydroxysteroid …: MNLREKYGEWGLILGATEGVGKAFCEKIAAGGMNVVMVGRREEKLNVLAGEIRETYGVETKVVSADFSQPGAAETVFAATEGLDMGFMSYVACLHSFGKIQDTPWEKHEAMINVNVVTFLKCFHHYMRIFAAQDRGAVINVSSMTGISSSPWNGQYGAGKAFILKMTEAVACECEGTGVDVEVITLGTTLTPSLLSNLPGGPQGEAVMKIALTPEECVDEAFEKLGKELSVIAGQRNKDSVHDWKANHTEDEYIRYMGSFYRD
B12: 7β-HSDH [R64K]: 7β-HSDH mutant, R in position 64 replaced by K (protein, UniProt A4ECA9 1-263, looked up, variant R64K)
7beta-hydroxysteroid …: MNLREKYGEWGLILGATEGVGKAFCEKIAAGGMNVVMVGRREEKLNVLAGEIRETYGVETKVVKADFSQPGAAETVFAATEGLDMGFMSYVACLHSFGKIQDTPWEKHEAMINVNVVTFLKCFHHYMRIFAAQDRGAVINVSSMTGISSSPWNGQYGAGKAFILKMTEAVACECEGTGVDVEVITLGTTLTPSLLSNLPGGPQGEAVMKIALTPEECVDEAFEKLGKELSVIAGQRNKDSVHDWKANHTEDEYIRYMGSFYRD
B13: 7β-HSDH [R64P]: 7β-HSDH mutant, R in position 64 replaced by P (protein, UniProt A4ECA9 1-263, looked up, variant R64P)
7beta-hydroxysteroid …: MNLREKYGEWGLILGATEGVGKAFCEKIAAGGMNVVMVGRREEKLNVLAGEIRETYGVETKVVPADFSQPGAAETVFAATEGLDMGFMSYVACLHSFGKIQDTPWEKHEAMINVNVVTFLKCFHHYMRIFAAQDRGAVINVSSMTGISSSPWNGQYGAGKAFILKMTEAVACECEGTGVDVEVITLGTTLTPSLLSNLPGGPQGEAVMKIALTPEECVDEAFEKLGKELSVIAGQRNKDSVHDWKANHTEDEYIRYMGSFYRD
B14: 7β-HSDH [R64F]: 7β-HSDH mutant, R in position 64 replaced by F (protein, UniProt A4ECA9 1-263, looked up, variant R64F)
7beta-hydroxysteroid …: MNLREKYGEWGLILGATEGVGKAFCEKIAAGGMNVVMVGRREEKLNVLAGEIRETYGVETKVVFADFSQPGAAETVFAATEGLDMGFMSYVACLHSFGKIQDTPWEKHEAMINVNVVTFLKCFHHYMRIFAAQDRGAVINVSSMTGISSSPWNGQYGAGKAFILKMTEAVACECEGTGVDVEVITLGTTLTPSLLSNLPGGPQGEAVMKIALTPEECVDEAFEKLGKELSVIAGQRNKDSVHDWKANHTEDEYIRYMGSFYRD

The values below come from patent US10358672B2, “7-β-hydroxysteroid dehydrogenase mutants and process for the preparation of ursodeoxycholic acid” (Pharmazell GmbH, priority 2014, dated 2019).

A short description of one data set: Photometric activity determination of 7β-HSDH and mutants (decrease in absorbance at 340 nm, DHCA reduction with NADPH). The class given is biochemical. To be noted: Table 4, variants modified at position 64; 10 mM DHCA, NADPH, KPi pH 8.0. The protocol: The activity of the 7β-HSDH and of the mutants was determined using a photometric assay, where the decrease in absorbance was measured at 340 nm over a period of 30 seconds.
The expression [R64E] in the first column of the table means that the arginine (R) in position 64 of the protein sequence had been replaced by glutamic acid (E) in the mutant in question. The respective amino acid is abbreviated using the international one-letter code. Analogously, [R64D] means that an aspartic acid has been introduced at this position.
The molecule B1 returned a Specific activity of 32.1 U/mg and a Volumetric activity of 641.6 U/ml.
Consider B2, for which the Specific activity came to 9.83 U/mg and the Volumetric activity is listed as 171 U/ml.
B3 displayed a Specific activity of 20.9 U/mg and a Volumetric activity of 334 U/ml.
Consider B4, for which the Specific activity was found to be 10.1 U/mg and the Volumetric activity was 214 U/ml.
Turning to B5, the Specific activity amounted to 27.4 U/mg and the Volumetric activity stood at 450.5 U/ml.
The molecule B6 displayed a Specific activity of 9.7 U/mg and a Volumetric activity of 220.3 U/ml.
Regarding B7, the Specific activity came to 12.36 U/mg and the Volumetric activity is on record as 223 U/ml.
On to B8, for which the Specific activity came out at 13.77 U/mg and the Volumetric activity is listed as 273 U/ml.
For the molecule B9, the Specific activity is listed as 14.19 U/mg and the Volumetric activity stood at 269.7 U/ml.
Molecule B10 gave a Specific activity of 15.1 U/mg and a Volumetric activity of 407.7 U/ml.
In the case of B11, the Specific activity is recorded as 20.1 U/mg and the Volumetric activity is 333.7 U/ml.
B12 came in with a Specific activity of 15.1 U/mg and a Volumetric activity of 296.5 U/ml.
As for B13, the Specific activity is listed as 19.1 U/mg and the Volumetric activity came to 402.0 U/ml.
The molecule B14 yielded a Specific activity of 10.5 U/mg and a Volumetric activity of 216 U/ml.

The same data set, now with this note: qualitative statement.
With B1, the “activity compared with the wild-type enzyme” value is listed as “increase in the specific activity”.
In the case of B5, the “activity compared with the wild-type enzyme” value is recorded as “increase in the specific activity”.
